Data on three molecules can be found in doi:10.1101/386532 (bioRxiv, 2018).

The term Kd denotes the free concentration of one partner at which half of the binding sites on the other are occupied at equilibrium, for simple one-to-one binding. The low end stands for tighter binding, the high end for weaker binding.

First the molecules themselves.
T1: GST-CHMP1B(4–199) (WT) (human, UniProt Q7LBR1 4-199)
T1 sequence (looked up): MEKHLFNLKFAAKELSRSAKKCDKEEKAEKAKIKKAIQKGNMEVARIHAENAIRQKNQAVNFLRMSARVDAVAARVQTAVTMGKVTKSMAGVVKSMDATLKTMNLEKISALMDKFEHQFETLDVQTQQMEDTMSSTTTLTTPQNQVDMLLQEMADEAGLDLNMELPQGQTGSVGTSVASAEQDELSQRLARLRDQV

B1: IST1(1–189) (IST1NTD) (domain or fragment, human, UniProt P53990 1-189, looked up)
chain: MLGSGFKAERLRVNLRLVINRLKLLEKKKTELAQKARKEIADYLAAGKDERARIRVEHIIREDYLVEAMEILELYCDLLLARFGLIQSMKELDSGLAESVSTLIWAAPRLQSEVAELKIVADQLCAKYSKEYGKLCRTNQIGTVNDRLMHKLSVEAPPKILVERYLIEIAKNYNVPYEPDSVVMAEAPP
B2: CHMP1B(4–199) for structure determination (from His-SUMO fusion) (natural protein, human, UniProt Q7LBR1 4-199, looked up)
chain: T1 sequence (looked up)

Series [1] deals with T1, GST-CHMP1B(4–199) (WT). The series is described as follows: SPR. (In general: In SPR one partner is held on a chip, and binding of the other changes the refractive index at the surface.)
Series [2] deals with the molecule itself. The series is described as follows: negative stain EM of filament assembly.
The target of series [3] is B1. Nature of the series: SPR.
Series [4] deals with the molecule itself. The series is described as follows: cryo-EM structure.

In turn, B1 had a Kd in series [1] of 92 µM. In series [2], the binding result is “binds”.
In series [3], DELSQRLARLRDQV (peptide, UniProt Q7LBR1 186-199, looked up) [GST-CHMP1Bα6 (CHMP1B MIM1 element alone, residues 186–199)] came in with a Kd of 91 µM.
For B2, in series [4], the binding result is on record as “binds”.
